Like-named read-outs stand apart in the source and are kept apart here.
Experiments:
[1] = system: AAV2; test: AAV2 (AV2Luc) transduction of HeLa cells, luciferase activity; format: cell-based; conditions: for inhibition of AAV2 transduction: DPI 10 μM
Experimental: (§1) Recombinant type-2 adeno-associated viruses encoding luciferase (AV2Luc) or factor VIII (AV2FVIII) transgenes were used for infection of different cell types. HeLa and IB3 cells were cultured in DMEM supplemented with 10% fetal bovine serum (FBS) and antibiotics. Nox 1 and Nox2 knockout and wild-type (wt) littermate control mouse dermal fibroblasts were generated from newborn mice as described in Bosu et al. (2001) and below. For all infections, viruses were applied to cells in serum-free DMEM, and an equal volume of 20% FBS/DMEM was added at 2 hours post-infection.
(§2) In studies evaluating viral entry, cells were incubated with 1,000 particles/cell of AV2FVIII at 4° C. for 30 minutes prior to removing virus, washing cells, and shifting cells to 37° C. Cells were then incubated for the indicated times and postnuclear supernatants (PNS) were prepared for analysis of intracellular AAV2. Taqman PCR was used to quantify the abundance of viral genomes in different subcellular fractions following infection using primer sets and methods described in Ding et al. (2006). When proteasome inhibitors were added to induce AAV2 transduction, LLnL (Boston Biochem, Cambridge, Mass.) and/or doxorubicin (Calbiochem, San Diego, Calif.), were present in the medium at concentrations of 40 μM and 5 μM, respectively. Modulation of endosomal ROS was achieved by adding 1 mg/mL of purified bovine Cu/Zn superoxide dismutase (Cu/ZnSOD) (Oxis Research, Portland, Oreg.) and/or catalase (Sigma-Aldrich, St. Louis, Mo.) to the medium which was then applied to cells 20 minutes prior to viral infections unless indicated otherwise. SOD and/or catalase remained in the medium during infection unless otherwise indicated.

[2] = target: T1, AAV2 capsid (Adeno-associated virus 2, UniProt P03135); conditions: 100 nM H2O2
T1 sequence (P03135 whole entry): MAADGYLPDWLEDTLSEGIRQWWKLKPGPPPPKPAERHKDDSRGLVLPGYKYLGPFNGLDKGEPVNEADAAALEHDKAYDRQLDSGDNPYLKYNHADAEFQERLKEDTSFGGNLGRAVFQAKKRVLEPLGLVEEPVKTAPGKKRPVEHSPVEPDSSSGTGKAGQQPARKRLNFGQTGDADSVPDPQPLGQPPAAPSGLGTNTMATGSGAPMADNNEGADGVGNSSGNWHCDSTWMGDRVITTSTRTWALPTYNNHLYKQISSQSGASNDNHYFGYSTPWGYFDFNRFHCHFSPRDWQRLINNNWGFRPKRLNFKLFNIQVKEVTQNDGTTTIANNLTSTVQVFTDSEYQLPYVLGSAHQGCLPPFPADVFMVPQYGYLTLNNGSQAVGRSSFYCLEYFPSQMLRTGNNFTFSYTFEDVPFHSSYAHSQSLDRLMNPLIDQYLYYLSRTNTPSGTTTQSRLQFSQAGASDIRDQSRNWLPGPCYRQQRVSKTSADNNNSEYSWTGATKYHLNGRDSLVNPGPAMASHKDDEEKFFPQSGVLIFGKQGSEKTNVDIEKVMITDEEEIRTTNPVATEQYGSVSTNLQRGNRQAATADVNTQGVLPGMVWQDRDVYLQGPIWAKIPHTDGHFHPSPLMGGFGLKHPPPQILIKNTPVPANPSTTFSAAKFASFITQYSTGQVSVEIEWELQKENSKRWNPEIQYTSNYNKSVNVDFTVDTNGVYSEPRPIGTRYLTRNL
T1 sequence (P03135 1-598 isoform P03135-2): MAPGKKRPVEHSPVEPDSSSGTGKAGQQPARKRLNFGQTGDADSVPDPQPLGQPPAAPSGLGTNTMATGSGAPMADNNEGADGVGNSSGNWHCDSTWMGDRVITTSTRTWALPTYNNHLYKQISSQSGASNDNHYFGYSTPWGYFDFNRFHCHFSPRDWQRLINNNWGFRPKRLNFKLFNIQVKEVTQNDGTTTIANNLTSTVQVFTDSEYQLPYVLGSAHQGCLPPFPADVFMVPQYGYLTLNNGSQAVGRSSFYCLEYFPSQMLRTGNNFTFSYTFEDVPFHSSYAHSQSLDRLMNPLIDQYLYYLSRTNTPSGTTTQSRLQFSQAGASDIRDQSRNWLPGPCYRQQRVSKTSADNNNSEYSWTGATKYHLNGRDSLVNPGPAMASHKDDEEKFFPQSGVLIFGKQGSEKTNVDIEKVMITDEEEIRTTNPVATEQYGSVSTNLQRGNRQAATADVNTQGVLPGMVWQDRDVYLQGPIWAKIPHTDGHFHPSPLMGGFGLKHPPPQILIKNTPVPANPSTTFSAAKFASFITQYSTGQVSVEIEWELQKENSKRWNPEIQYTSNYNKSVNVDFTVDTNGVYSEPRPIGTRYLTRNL
T1 sequence (P03135 203-735): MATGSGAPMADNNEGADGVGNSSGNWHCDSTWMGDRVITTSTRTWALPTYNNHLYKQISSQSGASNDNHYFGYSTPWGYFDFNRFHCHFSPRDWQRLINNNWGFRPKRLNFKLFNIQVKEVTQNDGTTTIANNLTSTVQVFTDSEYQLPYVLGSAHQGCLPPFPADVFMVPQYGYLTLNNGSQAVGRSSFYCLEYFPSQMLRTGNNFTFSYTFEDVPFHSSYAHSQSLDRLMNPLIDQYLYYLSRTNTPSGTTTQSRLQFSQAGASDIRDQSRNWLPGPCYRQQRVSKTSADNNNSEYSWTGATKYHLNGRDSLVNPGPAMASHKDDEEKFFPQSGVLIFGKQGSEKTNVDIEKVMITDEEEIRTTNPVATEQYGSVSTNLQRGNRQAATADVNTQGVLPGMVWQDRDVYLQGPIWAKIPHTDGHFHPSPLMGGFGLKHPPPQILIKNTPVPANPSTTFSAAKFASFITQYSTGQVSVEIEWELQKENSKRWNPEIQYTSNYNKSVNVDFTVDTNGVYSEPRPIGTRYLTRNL
Experimental: Subtle changes in capsid structure of the virion following heat denaturation or exposure to H2O2 was assayed using MALDI-TOF mass spectrometry following trypsin digestion. Briefly, 10^10 AAV2 particles were treated with H2O2 (which was then removed by dialysis for 1 hour against 20 mM Tris, 20 mM NaCl, pH 8.0) or heated to 70° C. as described above and then incubated with 500 ng of porcine trypsin in 25 mM NH4HCO3 (pH 8.0) at 37° C. for 16 hours. The digested products were then sequentially incubated with 10 mM DTT and 55 mM of iodoacetamide to reduce and modify cysteine residues. 1/20 of the original sample was assayed on a Bruker Biflex III MALDI-TOF MS. For the analysis of cysteine modification, the theoretical m/z values of peptides containing individual cysteines were predicted without modification, with iodoacetamide modification, and with different oxidative (sulfenic, sulfinic, or sulfonic) modifications. Spectra were evaluated using ExPASy (http://us.expasy.org/tools/peptide-mass.html) and compared to the theoretical spectra for various VP proteins.

[3] = system: AAV2; conditions: Sanlioglu et al., 2004; 1999; cited from earlier work
[4] = target: AAV2 capsid PLA2 (Adeno-associated virus 2, UniProt P03135)
Chain of AAV2 capsid PLA2 (P03135 whole entry): as the sequence (P03135 whole entry) above
Chain of AAV2 capsid PLA2 (P03135 1-598 isoform P03135-2 partner): as the sequence (P03135 1-598 isoform P03135-2) above
Chain of AAV2 capsid PLA2 (P03135 203-735 partner limits assumed): as the sequence (P03135 203-735) above
Experimental: 10^10 purified AV2FVIII virions were treated with various conditions to activate PLA2 activity in the capsid of purified virions. This included pre-incubation of virus with various concentration of H2O2 for 15 minutes at 37° C. or partial heat denaturation at 70° C. for 2 minutes. Catalase was added to virus treated with H2O2 at the end of the treatment period to scavenge H2O2 prior to the PLA2 activity assay. PLA2 activity of virions was determined by the release of radioactive fatty acid from L-3-phosphatidylcholine (PC), 1,2-di[1-^14C]oleoyl using the protocol described by Zadori et al. (2001).

[5] = target: T1, AAV2 capsid; conditions: following 100 nM H2O2 treatment; data not shown
[6] = system: AAV2; test: AAV2 (AV2Luc) transduction of Nox1/Nox2 WT and KO primary mouse dermal fibroblasts (PMDF); format: cell-based; conditions: catalase 1 mg/ml
Experimental: as §1
(§3) In studies evaluating the efficiency of viral transduction, AV2Luc virus was used at a multiplicity of infection (MOI) equal to 1,000 particles/cell, and luciferase activity was measured at 24 hours post-infection. In studies evaluating viral entry, cells were incubated with 1,000 particles/cell of AV2FVIII at 4° C. for 30 minutes prior to removing virus, washing cells, and shifting cells to 37° C. Cells were then incubated for the indicated times and postnuclear supernatants (PNS) were prepared for analysis of intracellular AAV2. Taqman PCR was used to quantify the abundance of viral genomes in different subcellular fractions following infection using primer sets and methods described in Ding et al. (2006). […]

[7] = system: AAV2; test: Viral uptake/accumulation, viral genomes quantified by Taqman PCR, HeLa cells; format: cell-based
Experimental: as §2, with “In studies evaluating the efficiency of viral transduction, AV2Luc virus was used at a multiplicity of infection (MOI) equal to 1,000 particles/cell, and luciferase activity was measured at 24 hours post-infection. In” for “In”

[8] = target: T2, NADPH oxidase (Homo sapiens, UniProt P04839); test: NADPH-dependent superoxide production in endosomal (vesicular) fractions, lucigenin-based assay; format: biochemical; conditions: HeLa cells; 20 minutes following infection; catalase 1 mg/mL
T2 construct: endogenous in cells; host or cells: iodixanol-fractionated endosomal (vesicular) fractions of HeLa and IB3 cells after AAV2 infection
Experimental: Vesicular fractionation was performed using a previously described protocol (Li et al., 2006b) with minor modifications. Briefly, cells were harvested by scraping and washing twice in 4° C. phosphate-buffered saline (PBS). Cells were then pelleted and resuspended on ice in 1 mL of pre-cooled (4° C.) homogenization buffer (0.25 M sucrose, 10 mM triethanolamine, 1 mM EDTA, 1 mM PMSF, and 100 μg/mL aprotinin) and homogenized using a nitrogen decompression vessel (Parr Instrument, Moline, Ill.). Methods for generating PNS, iodixanol isolation of vesicular fractions, sample collection, quality control, and Nox activity assays were performed as described in Li et al. (2006b).
In brief, vesicular fractions were confirmed by Western blot to contain known endosomal Rab proteins and be devoid of markers for plasma membrane and mitochondria. Nox activities were analyzed by measuring the rate of .O2— generation using a chemiluminescent, lucigenin-based system. […] The reaction was initiated by the addition of 100 μM of NADPH (Sigma-Aldrich, St. Louis, Mo.) and changes in luminescence were measured over the course of 3 min (5 readings/sec). The slope of the luminescence curve (relative light units [RLU] per minute) (r>0.95) was used to calculate the rate of .O2^− formation as an index of NADPH oxidase activity.

[9] = system: AAV2; test: Virion endosomal escape assay (30% iodixanol cushion) in HeLa cells; format: cell-based; conditions: 1 hour following infection, catalase loading
Experimental: A protocol using a 30% iodixanol cushion was developed to separate AAV2 virions in the cytoplasm from those inside endosomes. Briefly, HeLa cells were incubated with 1,000 particles/cell of AAV2 at 4° C. for 30 minutes before removing virus, washing cells, and shifting cells to 37° C. Cells were then incubated for the indicated times and PNS were prepared. A total volume of 500 μl PNS was then loaded on the top of 250 μl 30% iodixanol, followed by centrifugation at 100,000×g for 1 hour. Viral genome within the supernatant and pellet were quantified by real-time PCR.

[10] = system: AAV2; test: AAV2 (AV2Luc) transduction of IB3 cells, luciferase activity; format: cell-based
Experimental: as §1, §3

[11] = HeLa cells, antimycin A 10 μM, L-NMMA 5 mM, rotenone 2 nM, 16 hours post-infection

c1ccc2c(c1)[I+]c1ccccc1-2 [DPI]
inhibition of AAV2 transduction ([1]; HeLa cells, absence of proteasome inhibitors, 16 hours post-infection): 100 fold | inhibition of AAV2 transduction ([1]; HeLa cells, presence of proteasome inhibitors, 16 hours post-infection): 1000 fold

OO [H2O2, hydrogen peroxide]
tryptic digestion of AAV2 virions after pre-treatment [2]: significantly enhanced tryptic digestion | effect on AAV2 transduction [3]: increase AAV2 transduction | PLA2 activity of H2O2-treated virions [4]: greater than that seen following partial virion heat denaturation | optimal concentration of H2O2 for PLA2 activation [4]: 100 nM | number of cysteines that form sulfonic acid in the capsid [5]: < 5%

CC(=O)O.CNC(=N)NCCC[C@H](N)C(=O)O [L-NMMA, N^G-monomethyl-L-arginine acetate]
effect on AAV2 transduction [1, 11]: did not significantly affect

CC(=O)N[C@@H](CS)C(=O)O [NAC, N-acetyl-L-cysteine]
effect on AAV2 transduction [3]: inhibit transduction

C=C(C)[C@H]1Cc2c(ccc3c2O[C@@H]2COc4cc(OC)c(OC)cc4[C@@H]2C3=O)O1 [rotenone]
effect on AAV2 transduction [1, 11]: did not significantly affect

SOD1: purified bovine Cu/Zn superoxide dismutase (Oxis Research)
effect on AAV2 transduction ([1]; endosomal loading with purified SOD1, absence or presence of proteasome inhibitors): failed to alter

antimycin A
effect on AAV2 transduction [1, 11]: did not significantly affect

B1: catalase: purified bovine catalase (Sigma-Aldrich) loaded into endosomes to clear H2O2 (protein, UniProt P00432 2-527, looked up)
Catalase: ADNRDPASDQMKHWKEQRAAQKPDVLTTGGGNPVGDKLNSLTVGPRGPLLVQDVVFTDEMAHFDRERIPERVVHAKGAGAFGYFEVTHDITRYSKAKVFEHIGKRTPIAVRFSTVAGESGSADTVRDPRGFAVKFYTEDGNWDLVGNNTPIFFIRDALLFPSFIHSQKRNPQTHLKDPDMVWDFWSLRPESLHQVSFLFSDRGIPDGHRHMNGYGSHTFKLVNANGEAVYCKFHYKTDQGIKNLSVEDAARLAHEDPDYGLRDLFNAIATGNYPSWTLYIQVMTFSEAEIFPFNPFDLTKVWPHGDYPLIPVGKLVLNRNPVNYFAEVEQLAFDPSNMPPGIEPSPDKMLQGRLFAYPDTHRHRLGPNYLQIPVNCPYRARVANYQRDGPMCMMDNQGGAPNYYPNSFSAPEHQPSALEHRTHFSGDVQRFNSANDDNVTQVRTFYLKVLNEEQRKRLCENIAGHLKDAQLFIQKKAVKNFSDVHPEYGSRIQALLDKYNEEKPKNAVHTYVQHGSHLSAREKANL
effect on AAV2 transduction ([6]; Nox1+/+ and Nox1-/- PMDFs, baseline and proteasome inhibitor induced): inhibited transduction | effect on AAV2 transduction ([6]; Nox2-/- PMDFs): did not significantly alter | effect on viral uptake ([7]; 1 mg/mL catalase): not due to impaired viral uptake | effect on viral accumulation in the endosomal compartment ([7]; 20 minutes following infection, catalase 1 mg/mL): did not affect | effect on Nox activity in the endosomal compartment [8]: did not affect | inhibition of viral escape from endosomes [9]: about 3 fold | effect on ability of proteasome inhibitors to enhance AAV2 transduction ([10]; 40 μM LLnL and 5 μM doxorubicin): completely abolished | effect on AAV2 transduction (luciferase transgene expression) ([10]; 1 mg/mL catalase endosomal loading): significantly inhibited | effect on ability of proteasome inhibitors to enhance AAV2 transduction ([1]; HeLa cells, 40 μM LLnL and 5 μM doxorubicin): completely abolished | effect on AAV2 transduction (luciferase transgene expression) ([1]; HeLa cells, 1 mg/mL catalase endosomal loading): significantly inhibited | ability of catalase loading to inhibit viral transduction ([1]; catalase added by 30 minutes post-infection): significantly declined | ability of catalase loading to inhibit viral transduction ([1]; catalase added by 60 minutes post-infection): completely absent | decrease of rAAV2 transduction by catalase loading ([1]; endosomal catalase loading, cell type not stated in b12): about 80 fold
